Results on eight substances are retold here after patent publication US20230295297A1.

In test [1] the target is mouse TREM2 on cells (mouse) (UniProt Q99NH8). Nature of the test: FACS, WT mouse macrophages. In general terms: A flow cytometer gives signals particle by particle.
Test [2] addresses TREM2 protein of the 'Percent APOE binding' column of Table 9B. Nature of the test: TREM2 binding to APOE with antibody.
Test [3] deals with human TREM2 on primary cells (human) (UniProt Q9NZC2). Kind of test: FACS, primary hDC; isotype control.
human TREM2 on primary cells (human), sequence (Q9NZC2 19-230): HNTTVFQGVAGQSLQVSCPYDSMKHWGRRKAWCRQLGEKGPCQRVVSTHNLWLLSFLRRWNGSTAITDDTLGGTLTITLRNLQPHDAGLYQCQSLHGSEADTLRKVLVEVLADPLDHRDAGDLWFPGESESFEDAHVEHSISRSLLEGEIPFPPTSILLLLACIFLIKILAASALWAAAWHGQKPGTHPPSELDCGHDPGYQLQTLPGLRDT
Test [4] has as its target recombinant human TREM2-DAP12 fusion protein expressed on cells (human). Kind of test: FACS, HEKhT2 cells; isotype control.
In test [5] the target is human TREM2 on primary cells (human) (UniProt Q9NZC2). Nature of the test: FACS, primary hMAC; isotype control.
Test [6] has as its target TREM2 protein of the 'Percent APOE binding' column of Table 9B. Kind of test: TREM2 binding to APOE with isotype control.
Test [7] addresses mouse TREM2 on cells (mouse) (UniProt Q99NH8). Nature of the test: FACS, WT mouse macrophages; isotype control.
For test [8] the target is unchanged. Nature of the test: FACS, BWZmT2 cells; isotype control.

recombinant human TREM2-DAP12 fusion protein expressed on cells (human), sequence (chain, as listed by the source limits assumed, form in doubt): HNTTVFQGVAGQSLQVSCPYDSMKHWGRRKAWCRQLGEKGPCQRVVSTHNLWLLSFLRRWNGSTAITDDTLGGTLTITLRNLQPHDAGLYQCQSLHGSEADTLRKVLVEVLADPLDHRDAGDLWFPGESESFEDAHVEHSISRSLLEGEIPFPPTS
mouse TREM2 on cells (mouse), sequence (Q99NH8 19-227 limits assumed): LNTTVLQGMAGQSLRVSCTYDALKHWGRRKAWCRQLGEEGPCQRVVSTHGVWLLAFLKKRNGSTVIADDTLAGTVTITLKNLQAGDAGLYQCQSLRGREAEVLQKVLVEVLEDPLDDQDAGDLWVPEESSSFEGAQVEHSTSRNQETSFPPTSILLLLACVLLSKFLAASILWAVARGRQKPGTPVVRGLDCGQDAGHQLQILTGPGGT

Consider “commercial anti-TREM2 antibody (R&D Cat #F7E57291)”, for which the % Positive WT BMMACS in test [1] was determined as 13.1%. The Percent APOE binding in test [2] is 106%.
Consider mouse IgG2b isotype control antibody, for which the % Positive hDC in test [3] came out at 6.1%. Besides, the MFI HEKhT2 in test [4] came to 13 MFI. Also, in test [5], the % Positive hMAC amounted to 5.3%.
On to rat IgG2b isotype control antibody, for which the % Positive hDC in test [3] is 0.3%. Further, the Percent APOE binding in test [6] turned out to be 102%. Besides, the MFI HEKhT2 in test [4] was 35 MFI. Moreover, the % Positive hMAC in test [5] was found to be 0.9%.
rat IgG1 isotype control antibody returned a % Positive hDC in test [3] of 8.7%. Moreover, in test [4], the MFI HEKhT2 is 544 MFI. This substance gave a % Positive hMAC in test [5] of 19.6%.
With mouse IgG1 isotype control antibody, the % Positive WT BMMACS in test [7] came to 0.574%. For the same substance, the % Positive hDC in test [3] came to 4.9%. In test [6], this substance yielded a Percent APOE binding of 90.8%. The MFI HEKhT2 in test [4] turned out to be 16.3 MFI. The substance further registered an MFI BWZmT2 in test [8] of 278 MFI. In test [5], the % Positive hMAC amounted to 2.7%.
For the substance mouse IgG2a isotype control antibody, the % Positive hDC in test [3] stood at 7.3%. Also, the MFI HEKhT2 in test [4] was 40.3 MFI. Further, the % Positive hMAC in test [5] came to 7.9%.
On to mouse IgM isotype control antibody, for which the % Positive hDC in test [3] is 14.9%. For the same substance, the MFI HEKhT2 in test [4] is 124 MFI. The substance further displayed a % Positive hMAC in test [5] of 63.7%.
Taken in the same sequence, the figures for rat IgG2a isotype control antibody were 6.2%, 33 MFI and 10.4%.
